Experimental data published in article PMC5460842.

Target: FLAG-EGFR incorporated into nanolipoprotein particles (EGFR-NLP) (not stated ("mammalian")) (UniProt P00533)
Assay: BLI; competition with biotinylated EGF on sensor, 100 nM EGFR-NLP; given as EC50

For cetuximab, which IC50 is on record?
The IC50 was 5.87 nM.
